Paper PMC3963969

Target: Rad4/Cut5 (UniProt P32372)
Assay: anti-HA IP of Rad9, anti-Rad4 blot
Conditions: reference: wild-type Rad9; sites T412

binding against the reference: lost
Substance: Rad9 (from UniProt P26306) Rad9-T412A
